{"source": "the supplement of paper PMC11316812", "key": {"MCF7": {"tested_on": "MCF7", "assay": "percentage of EdU-negative (G0-arrested) nuclei per well, 72 h; higher = more G0 arrest", "conditions": "reference: sequence is the full UniProt precursor, the tested protein was the secreted form or ectodomain"}, "hTERT-HMEC": {"tested_on": "hTERT-HMEC", "assay": "percentage of EdU-negative (G0-arrested) nuclei per well, 72 h; higher = more G0 arrest", "conditions": "reference: sequence is the full UniProt precursor, the tested protein was the secreted form or ectodomain"}, "[1]": {"conditions": "protein concentration 0.0225 µM"}, "[2]": {"conditions": "protein concentration 0.01975 µM"}, "[3]": {"conditions": "protein concentration 0.1975 µM"}, "[4]": {"conditions": "protein concentration 0.0289325 µM"}, "[5]": {"conditions": "protein concentration 0.289325 µM"}, "[6]": {"conditions": "protein concentration 0.03125 µM"}, "[7]": {"conditions": "protein concentration 0.3125 µM"}, "[8]": {"conditions": "protein concentration 0.0357143 µM"}, "[9]": {"conditions": "protein concentration 0.357143 µM"}}, "note": "± gives the standard deviation of the averaged measurements.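 Also: secreted proteins added to cultured cells, EdU pulse at the end, nuclei found by Hoechst imaging, EdU status from nuclear versus surrounding ring intensity ratio, PBS as neutral control.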", "data": [{"sequence": "MGPLINRCKKILLPTTVPPATMRIWLLGGLLPFLLLLSGLQRPTEGSEVAIKIDFDFAPGSFDDQYQGCSKQVMEKLTQGDYFTKDIEAQKNYFRMWQKAHLAWLNQGKVLPQNMTTTHAVAILFYTLNSNVHSDFTRAMASVARTPQQYERSFHFKYLHYYLTSAIQLLRKDSIMENGTLCYEVHYRTKDVHFNAYTGATIRFGQFLSTSLLKEEAQEFGNQTLFTIFTCLGAPVQYFSLKKEVLIPPYELFKVINMSYHPRGDWLQLRSTGNLSTYNCQLLKASSKKCIPDPIAIASLSFLTSVIIFSKSRV", "values": [{"measurement": "percentage of EdU-negative", "setting": "MCF7; [1]", "value": "23.9 ± 0.46", "unit": "%"}, {"measurement": "percentage of EdU-negative", "setting": "MCF7; protein concentration 0.225 µM", "value": "27.2 ± 0.8", "unit": "%"}, {"measurement": "percentage of EdU-negative", "setting": "hTERT-HMEC; [1]", "value": "5.08 ± 0.63", "unit": "%"}, {"measurement": "percentage of EdU-negative", "setting": "hTERT-HMEC; protein concentration 0.225 µM", "value": "6.69 ± 0.27", "unit": "%"}]}, {"sequence": "MGPLMVLFCLLFLYPGLADSAPSCPQNVNISGGTFTLSHGWAPGSLLTYSCPQGLYPSPASRLCKSSGQWQTPGATRSLSKAVCKPVRCPAPVSFENGIYTPRLGSYPVGGNVSFECEDGFILRGSPVRQCRPNGMWDGETAVCDNGAGHCPNPGISLGAVRTGFRFGHGDKVRYRCSSNLVLTGSSERECQGNGVWSGTEPICRQPYSYDFPEDVAPALGTSFSHMLGATNPTQKTKESLGRKIQIQRSGHLNLYLLLDCSQSVSENDFLIFKESASLMVDRIFSFEINVSVAIITFASEPKVLMSVLNDNSRDMTEVISSLENANYKDHENGTGTNTYAALNSVYLMMNNQMRLLGMETMAWQEIRHAIILLTDGKSNMGGSPKTAVDHIREILNINQKRNDYLDIYAIGVGKLDVDWRELNELGSKKDGERHAFILQDTKALHQVFEHMLDVSKLTDTICGVGNMSANASDQERTPWHVTIKPKSQETCRGALISDQWVLTAAHCFRDGNDHSLWRVNVGDPKSQWGKEFLIEKAVISPGFDVFAKKNQGILEFYGDDIALLKLAQKVKMSTHARPICLPCTMEANLALRRPQGSTCRDHENELLNKQSVPAHFVALNGSKLNINLKMGVEWTSCAEVVSQEKTMFPNLTDVREVVTDQFLCSGTQEDESPCKGESGGAVFLERRFRFFQVGLVSWGLYNPCLGSADKNSRKRAPRSKVPPPRDFHINLFRMQPWLRQHLGDVLNFLPL", "values": [{"measurement": "percentage of EdU-negative", "setting": "MCF7; [2]", "value": "27.3 ± 1.1", "unit": "%"}, {"measurement": "percentage of EdU-negative", "setting": "MCF7; [3]", "value": "27.9 ± 2", "unit": "%"}, {"measurement": "percentage of EdU-negative", "setting": "hTERT-HMEC; [2]", "value": "5.66 ± 0.4", "unit": "%"}, {"measurement": "percentage of EdU-negative", "setting": "hTERT-HMEC; [3]", "value": "16.21 ± 0.11", "unit": "%"}]}, {"sequence": "MGPLPAPSCTQRITWKGLLLTASLLNFWNPPTTAEVTIEAQPPKVSEGKDVLLLVHNLPQNLPGYFWYKGEMTDLYHYIISYIVDGKIIIYGPAYSGRETVYSNASLLIQNVTRKDAGTYTLHIIKRGDETREEIRHFTFTLYLETPKPYISSSNLNPREAMEAVRLICDPETLDASYLWWMNGQSLPVTHRLQLSKTNRTLYLFGVTKYIAGPYECEIRNPVSASRSDPVTLNLLPKLPIPYITINNLNPRENKDVLAFTCEPKSENYTYIWWLNGQSLPVSPGVKRPIENRILILPSVTRNETGPYQCEIRDRYGGLRSNPVILNVLYGPDLPRIYPSFTYYRSGENLDLSCFTESNPPAEYFWTINGKFQQSGQKLFIPQITRNHSGLYACSVHNSATGKEISKSMTVKVSGPCHGDLTESQS", "values": [{"measurement": "percentage of EdU-negative", "setting": "MCF7; [4]", "value": "25.2 ± 0.61", "unit": "%"}, {"measurement": "percentage of EdU-negative", "setting": "MCF7; [5]", "value": "26.3 ± 0.9", "unit": "%"}, {"measurement": "percentage of EdU-negative", "setting": "hTERT-HMEC; [4]", "value": "4.85 ± 0.41", "unit": "%"}, {"measurement": "percentage of EdU-negative", "setting": "hTERT-HMEC; [5]", "value": "4.97 ± 0.19", "unit": "%"}]}, {"sequence": "MGPLPVCLPIMLLLLLPSLLLLLLLPGPGSGEASRILRVHRRGILELAGTVGCVGPRTPIAYMKYGCFCGLGGHGQPRDAIDWCCHGHDCCYTRAEEAGCSPKTERYSWQCVNQSVLCGPAENKCQELLCKCDQEIANCLAQTEYNLKYLFYPQFLCEPDSPKCD", "values": [{"measurement": "percentage of EdU-negative", "setting": "MCF7; [1]", "value": "29.3 ± 2.5", "unit": "%"}, {"measurement": "percentage of EdU-negative", "setting": "MCF7; protein concentration 0.225 µM", "value": "31.17 ± 0.13", "unit": "%"}, {"measurement": "percentage of EdU-negative", "setting": "hTERT-HMEC; [1]", "value": "7.05 ± 0.95", "unit": "%"}, {"measurement": "percentage of EdU-negative", "setting": "hTERT-HMEC; protein concentration 0.225 µM", "value": "10.3 ± 2.1", "unit": "%"}]}, {"sequence": "MGPLSAPPCTEHIKWKGLLLTALLLNFWNLPTTAQVMIEAQPPKVSEGKDVLLLVHNLPQNLTGYIWYKGQIRDLYHYITSYVVDGQIIIYGPAYSGRETVYSNASLLIQNVTREDAGSYTLHIIKRGDGTRGVTGYFTFTLYLETPKPSISSSNLNPREAMETVILTCNPETPDASYLWWMNGQSLPMTHRMQLSETNRTLFLFGVTKYTAGPYECEIWNSGSASRSDPVTLNLLHGPDLPRIFPSVTSYYSGENLDLSCFANSNPPAQYSWTINGKFQLSGQKLFIPQITPKHNGLYACSARNSATGEESSTSLTIRVIAPPGLGTFAFNNPT [Q9UQ72]", "values": [{"measurement": "percentage of EdU-negative", "setting": "MCF7; [6]", "value": "24.9 ± 4.1", "unit": "%"}, {"measurement": "percentage of EdU-negative", "setting": "MCF7; [7]", "value": "26.7 ± 1.1", "unit": "%"}, {"measurement": "percentage of EdU-negative", "setting": "hTERT-HMEC; [6]", "value": "4.83 ± 0.7", "unit": "%"}, {"measurement": "percentage of EdU-negative", "setting": "hTERT-HMEC; [7]", "value": "5.46 ± 1.1", "unit": "%"}]}, {"sequence": "MGPLSAPPCTEHIKWKGLLVTASLLNFWNLPTTAQVTIEAQPPKVSEGKDVLLLVHNLPQNLTGYIWYKGQIRDLYHYITSYVVDGQIIIYGPAYSGRETAYSNASLLIQNVTREDAGSYTLHIIKRGDGTRGVTGYFTFTLYLETPKPSISSSNLNPREAMETVILTCDPETPDTSYQWWMNGQSLPMTHRFQLSETNRTLFLFGVTKYTAGPYECEIRNSGSASRSDPVTLNLLHGPDLPRIHPSYTNYRSGDNLYLSCFANSNPPAQYSWTINGKFQQSGQNLFIPQITTKHSGLYVCSVRNSATGEESSTSLTVKVSASTRIGLLPLLNPT", "values": [{"measurement": "percentage of EdU-negative", "setting": "MCF7; [8]", "value": "24.9 ± 2.1", "unit": "%"}, {"measurement": "percentage of EdU-negative", "setting": "MCF7; [9]", "value": "25.4 ± 0.54", "unit": "%"}, {"measurement": "percentage of EdU-negative", "setting": "hTERT-HMEC; [8]", "value": "4.65 ± 0.56", "unit": "%"}, {"measurement": "percentage of EdU-negative", "setting": "hTERT-HMEC; [9]", "value": "5.32 ± 1.1", "unit": "%"}]}]}
